Measured values: paper PMC5217639, “Structural prediction of the interaction of the tumor suppressor p27^KIP1 with cyclin A/CDK2 identifies a novel catalytically relevant determinant” (BMC Bioinformatics, 2017)

Legend:
cyclin A/CDK2 = molecular target: T1, cyclin A/CDK2 (Homo sapiens, UniProt P24941); experiment: In vitro kinase assay of cyclin A/CDK2 on biotinylated p27KIP1 substrate peptides (Michaelis-Menten kinetics); type: biochemical; conditions: for Relative rate (maximal relative rate of phosphoryl transfer) / Km: 50 μM ATP and 1 μCi 32P-γ-ATP, 10 min, 30°C, 50 mM Tris-HCl pH 7.5, 10 mM MgCl2, SAM2 membrane, scintillation counting, Michaelis-Menten fit (GraphPad Prism), Fig. 5: mean values ± SD of 5 experiments performed in duplicates; for Km: peptide substrate
T1 construct: made in house; host or cells: Sf9 insect cells (Spodoptera frugiperda), baculovirus co-infection
Experimental: Fig. 5 Analysis of cyclin A/CDK2 kinase activity on p27^KIP1 substrate peptides. Cyclin A/CDK2 Kinase purified from Sf9 cells was incubated with increasing concentrations of p27^KIP1 wild type and the R194A mutant peptide as indicated. Phosphorylation of the peptides was monitored after immobilisation on SAM2 membrane by scintillation counting and analysis by GraphPad Prism software. Shown are mean values ± SD of 5 experiments performed in duplicates
Human cyclin A/CDK2 complexes were expressed in SF9 insect cells (Spodoptera frugiperda) upon infection with recombinant baculo viruses encoding either cyclin A or CDK2. The complex was purified using the GST tag of cyclin A [49]. In vitro kinase assays of cyclin A/CDK2 were performed in kinase buffer (50 mM Tris-HCl, pH 7.5, 10 mM MgCl2, 1 mM EGTA, 1 mM DTT, 40 mM α-glycero-phosphate, 20 mM p-nitrophenylphosphate, 0.1 mM sodium vanadate, 0.01% BriJ 35) containing 50 μM ATP and 1 μCi ^32P-γ-ATP for 10 min at 30°C in the presence of increasing amount of biotinylated p27^KIP1 wild type or R194A (an arginine to alanine substitution at position 194) peptides as substrates. The assays were terminated by adding 12.5 μl 7.5 M guanidine hydrochloride. The peptides were immobilized on SAM2 Biotin Capture Membranes (Promega), extensively washed as described in the manufacturer’s protocol, and then monitored for radioactivity in a liquid scintillation counter to calculate the specific kinase activity. Kinetic parameters were determined with GraphPad Prism software built-in “Enzyme kinetic Michaelis-Menten”. The sequence of the p27^KIP1 wild type peptide corresponds to amino acids 180 to 194. The peptides were synthesized with a biotin-PEG-20-linker and purified by HPLC at the Peptide Specialty Laboratories, Heidelberg (Germany).

[1] = molecular target: Human cyclin A/CDK2 complex (human) (UniProt P20248)

Row | Relative rate (maximal relative rate of phosphoryl transfer) (cyclin A/CDK2) [pmol/min] | Km (cyclin A/CDK2) [µM] | turnover rate of the wt peptide relative to the R194A mutant peptide (cyclin A/CDK2; wt versus R194A, in words) | Km of peptide phosphorylation by cyclin A/CDK2, in vitro kinase assay (32P-γ-ATP, 50 μM ATP, 10 min, 30°C) [1] [µM] | Relative rate/Km of peptide phosphorylation by cyclin A/CDK2, in vitro kinase assay [1] | maximal relative rate of phosphoryl transfer by cyclin A/CDK2, in vitro kinase assay [1] [pmol/min] | Substance
1 | 1.11 | 81.4 | – | – | – | – | N180AGSVEQTPKKPGLA [Peptide R194A, p27KIP1 peptide with an arginine to alanine substitution at position 194]
2 | 2.21 | 93.6 | twice as high | – | – | – | N180AGSVEQTPKKPGLR [wt, p27KIP1 wild type peptide corresponding to amino acids 180 to 194]
3 | – | – | – | 93.6 | 0.0195 | 2.21 | p27^KIP1 wild-type peptide (amino acids 180 to 194)
4 | – | – | – | 81.4 | 0.0135 | 1.11 | p27^KIP1 R194A peptide (amino acids 180 to 194)
